Results as given in patent US11278600B2, “Human alpha-galactosidase variants” (Codexis, Inc., priority 2014, dated 2022).

Tests used:
Type in all cases: biochemical
[1] = HTP-analysis of yeast culture supernatants, no challenge (MUGal hydrolysis); details: activity of the variant/activity of Rd4BB (SEQ ID NO: 15)
Outline: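 GLA variants expressed in yeast INVSc1, secreted into SD-Ura broth over 66-84 h at 30° C; clarified supernatants tested without challenge. Supernatant mixed with McIlvaine buffer pH 4.8 and 2 mM MUGal (citrate/KCl, pH 4.6), 37° C for 30-180 min, carbonate-quenched, fluorescence Ex 355/Em 448 nm.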

[2] = HTP-analysis of supernatants pretreated with acid (MUGal hydrolysis); details: activity of the variant/activity of Rd4BB (SEQ ID NO: 15); challenge at pH 3.7
Outline: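 Supernatants from INVSc1 yeast secreting GLA variants were challenged at 37° C. for 1-3 h in McIlvaine buffer at pH 3.3-4.3. Residual activity was then measured on 4 mM MUGal substrate stock at pH 4.8 with citrate buffer pH 4.3, over 30-180 min at 37° C. Reactions were quenched with sodium carbonate and read by fluorescence (Ex 355/Em 448 nm).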

[3] = HTP-analysis of supernatants pretreated with base (MUGal hydrolysis); details: activity of the variant/activity of Rd4BB (SEQ ID NO: 15); challenge at pH 9.65
Outline: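 GLA variants secreted from yeast INVSc1; culture supernatants pre-incubated with McIlvaine buffer pH 7.0–8.2 or 200 mM bicarbonate pH 9.1–9.7 at 37° C. for 1–18 h. Residual activity: MUGal (4 mM stock) hydrolysis at pH 4.3–4.8, 37° C., 30–180 min, carbonate quench; fluorescence Ex 355/Em 448 nm.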

B1: 365 (protein)
chain: LDNGLARTPTMGWLHWERFMCNLDCQEEPDSCISEKLFMEMAERMVNEGWKDAGYEYLCIDDCWMAPQRDSEGRLQADPQRFPHGIRQLANYVHSKGLKLGIYADVGNKTCAGFPGSFGYYDIDAQTFADWGVDLLKFDGCYCDSLENLADGYKHMSLALNRTGRSIVYSCEWPLYMWPFQKPNYTEIRQYCNHWRNFADIDDSWKSIKSILDWTSRNQERIVDVAGPGGWNDPDMLVIGNFGLSWDQQVTQMALWAIMAAPLFMSNDLRHISPQAKALLQDKDVIAINQDPLGKQGYQLRKGDNFEVWERPLSGDAWAVAIINRQEIGGPRSYTIPVASLGKGVACNPACFITQLLPVKRQLGFYNWTSRLKSHINPTGTVLLQLENTMQMSLKDLL
modifications: Synthetic Polypeptide sequence of Variant No. 365 of mature Human GLA
Relative Activity of GLA Variants After No Challenge (NC) [1]: + (0.5 to 1.5 relative activity over Rd4BB (SEQ ID NO: 15)) | Relative Activity of GLA Variants After Challenge at pH 3.7 [2]: + (0.5 to 1.5 relative activity over Rd4BB (SEQ ID NO: 15)) | Relative Activity of GLA Variants After Challenge at pH 9.65 [3]: + (0.5 to 1.5 relative activity over Rd4BB (SEQ ID NO: 15))

B2: 440 (protein)
chain: LDNGLARTPTMGWLHWERFMCNLDCQEEPDSCISEKLFMEMAERMVSEGWKDAGYEYLCIDDCWMAPQRDSEGRLQADPQRFPHGIRQLANYVHSKGLKLGIYADVGNKTCAGFPGSFGYYDIDAQTFADWGVDLLKFDGCYCDSLENLADGYKHMSLALNRTGRSIVYSCEWPLYMWPFQKPNYTEIRQYCNHWRNFADIDDSWKSIKSILDWTSRNQERIVDVAGPGGWNDPDMLVIGNFGLSWDQQVTQMALWAIMAAPCFMSNDLRHISPQAKALLQDKDVIAINQDPLGKQGYQLRKGDNFEVWERPLSGDAWAVAIINRQEIGGPRSYTIPVASLGKGVACNPACFITQLLPVKRQLGFYNWTSRLKSHINPTGTVLLQLENTMQMSLKDLL
modifications: Synthetic Polypeptide sequence of Variant No. 440 of mature Human GLA
Relative Activity of GLA Variants After No Challenge (NC) [1]: + (0.5 to 1.5 relative activity over Rd4BB (SEQ ID NO: 15)) | Relative Activity of GLA Variants After Challenge at pH 3.7 [2]: + (0.5 to 1.5 relative activity over Rd4BB (SEQ ID NO: 15)) | Relative Activity of GLA Variants After Challenge at pH 9.65 [3]: − (<0.5 relative activity over Rd4BB (SEQ ID NO: 15))

B3: 445 (protein)
chain: LDNGLARTPTMGWLHWERFMCNLDCQEEPDSCISEKLFMEMAERMVSEGWKDAGYEYLCIDDCWMAPQRDSEGRLQADPQRFPHGIRQLANYVHSKGLKLGIYADVGNKTCAGFPGSFGYYDIDAQTFADWGVDLLKFDGCYCDSLENLADGYKHMSLALNRTGRSIVYSCEWPLYMWPFQKPNYTEIRQYCNHWRNFADIDDSWKSIKSILDWTSRNQERIVDVAGPGGWNDPDMLVIGNFGLSWDQQVTQMALWAIMAAPFFMSNDLRHISPQAKALLQDKDVIAINQDPLGKQGYQLRKGDNFEVWERPLSGDAWAVAIINRQEIGGPRSYTIPVASLGKGVACNPACFITQLLPVKRQLGFYNWTSRLKSHINPTGTVLLQLENTMQMSLKDLL
modifications: Synthetic Polypeptide sequence of Variant No. 445 of mature Human GLA
Relative Activity of GLA Variants After No Challenge (NC) [1]: + (0.5 to 1.5 relative activity over Rd4BB (SEQ ID NO: 15)) | Relative Activity of GLA Variants After Challenge at pH 3.7 [2]: + (0.5 to 1.5 relative activity over Rd4BB (SEQ ID NO: 15)) | Relative Activity of GLA Variants After Challenge at pH 9.65 [3]: − (<0.5 relative activity over Rd4BB (SEQ ID NO: 15))

B4: 439 (protein)
chain: LDNGLARTPTMGWLHWERFMCNLDCQEEPDSCISEKLFMEMAERMVSEGWKDAGYEYLCIDDCWMAPQRDSEGRLQADPQRFPHGIRQLANYVHSKGLKLGIYADVGNKTCAGFPGSFGYYDIDAQTFADWGVDLLKFDGCYCDSLENLADGYKHMSLALNRTGRSIVYSCEWPLYMWPFQKPNYTEIRQYCNHWRNFADIDDSWKSIKSILDWTSRNQERIVDVAGPGGWNDPDMLVIGNFGLSWDQQVTQMALWAIMAAPLFMSNDLRAISPQAKALLQDKDVIAINQDPLGKQGYQLRKGDNFEVWERPLSGDAWAVAIINRQEIGGPRSYTIPVASLGKGVACNPACFITQLLPVKRQLGFYNWTSRLKSHINPTGTVLLQLENTMQMSLKDLL
modifications: Synthetic Polypeptide sequence of Variant No. 439 of mature Human GLA
Relative Activity of GLA Variants After No Challenge (NC) [1]: + (0.5 to 1.5 relative activity over Rd4BB (SEQ ID NO: 15)) | Relative Activity of GLA Variants After Challenge at pH 3.7 [2]: + (0.5 to 1.5 relative activity over Rd4BB (SEQ ID NO: 15)) | Relative Activity of GLA Variants After Challenge at pH 9.65 [3]: + (0.5 to 1.5 relative activity over Rd4BB (SEQ ID NO: 15))

B5: 444 (protein)
chain: LDNGLARTPTMGWLHWERFMCNLDCQEEPDSCISEKLFMEMAERMVSEGWKDAGYEYLCIDDCWMAPQRDSEGRLQADPQRFPHGIRQLANYVHSKGLKLGIYADVGNKTCAGFPGSFGYYDIDAQTFADWGVDLLKFDGCYCDSLENLADGYKHMSLALNRTGRSIVYSCEWPLYMWPFQKPNYTEIRQYCNHWRNFADIDDSWKSIKSILDWTSRNQERIVDVAGPGGWNDPDMLVIGNFGLSWDQQVTQMALWAIWAAPLFMSNDLRHISPQAKALLQDKDVIAINQDPLGKQGYQLRKGDNFEVWERPLSGDAWAVAIINRQEIGGPRSYTIPVASLGKGVACNPACFITQLLPVKRQLGFYNWTSRLKSHINPTGTVLLQLENTMQMSLKDLL
modifications: Synthetic Polypeptide sequence of Variant No. 444 of mature Human GLA
Relative Activity of GLA Variants After No Challenge (NC) [1]: + (0.5 to 1.5 relative activity over Rd4BB (SEQ ID NO: 15)) | Relative Activity of GLA Variants After Challenge at pH 3.7 [2]: − (<0.5 relative activity over Rd4BB (SEQ ID NO: 15)) | Relative Activity of GLA Variants After Challenge at pH 9.65 [3]: + (0.5 to 1.5 relative activity over Rd4BB (SEQ ID NO: 15))

B6: 443 (protein)
chain: LDNGLARTPTMGWLHWERFMCNLDCQEEPDSCISEKLFMEMAERMVSEGWKDAGYEYLCIDDCWMAPQRDSEGRLQADPQRFPHGIRQLANYVHSKGLKLGIYADVGNKTCAGFPGSFGYYDIDAQTFADWGVDLLKFDGCYCDSLENLADGYKHMSLALNRTGRSIVYSCEWPLYMWPFQKPNYTEIRQYCNHWRNFADIDDSWASIKSILDWTSRNQERIVDVAGPGGWNDPDMLVIGNFGLSWDQQVTQMASWAIMAAPLFMSNDLRHISPQAKALLQDKDVIAINQDPLGKQGYQLRKGDNFEVWERPLSGDAWAVAIINRQEIGGPRSYTIPVASLGKGVACNPACFITQLLPVKRQLGFYNWTSRLKSHINPTGTVLLQLENTMQMSLKDLL
modifications: Synthetic Polypeptide sequence of Variant No. 443 of mature Human GLA
Relative Activity of GLA Variants After No Challenge (NC) [1]: + (0.5 to 1.5 relative activity over Rd4BB (SEQ ID NO: 15)) | Relative Activity of GLA Variants After Challenge at pH 3.7 [2]: +++ (>2.5 relative activity over Rd4BB (SEQ ID NO: 15)) | Relative Activity of GLA Variants After Challenge at pH 9.65 [3]: − (<0.5 relative activity over Rd4BB (SEQ ID NO: 15))

B7: 441 (protein)
chain: LDNGLARTPTMGWLHWERFMCNLDCQEEPDSCISEKLFMEMAERMVSEGWKDAGYEYLCIDDCWMAPQRDSEGRLQADPQRFPHGIRQLANYVHSKGLKLGIYADVGNKTCAGFPGSFGYYDIDAQTFADWGVDLLKFDGCYCDSLENLADGYKHMSLALNRTGRSIVYSCEWPLYMWPFQKPNYTEIRQYCNHWRNFADIDDSWKSIKSILDWTSRNQERIVDVAGPGGWNDPDMLVIGNFGLSWDQQVTQMALWAIMAAPLFMSNDLRVISPQAKALLQDKDVIAINQDPLGKQGYQLRKGDNFEVWERPLSGDAWAVAIINRQEIGGPRSYTIPVASLGKGVACNPACFITQLLPVKRQLGFYNWTSRLKSHINPTGTVLLQLENTMQMSLKDLL
modifications: Synthetic Polypeptide sequence of Variant No. 441 of mature Human GLA
Relative Activity of GLA Variants After No Challenge (NC) [1]: + (0.5 to 1.5 relative activity over Rd4BB (SEQ ID NO: 15)) | Relative Activity of GLA Variants After Challenge at pH 3.7 [2]: − (<0.5 relative activity over Rd4BB (SEQ ID NO: 15)) | Relative Activity of GLA Variants After Challenge at pH 9.65 [3]: + (0.5 to 1.5 relative activity over Rd4BB (SEQ ID NO: 15))

B8: 442 (protein)
chain: LDNGLARTPTMGWLHWERFMCNLDCQEEPDSCISEKLFMEMAERMVSEGWKDAGYEYLCIDDCWMAPQRDSEGRLQADPQRFPHGIRQLANYVHSKGLKLGIYADVGNKTCAGFPGSFGYYDIDAQTFADWGVDLLKFDGCYCDSLENLADGYKHMSLALNRTGRSIVYSCEWPLYMWPFQKPNYTEIRQYCNHWRNFADIDDSWKSIKSILDWTSRNQERIVDVAGPGGWNDPDMLVIGNFGLSWDQQVTQMAAWAIMAAPLFMSNDLRHISPQAKALLQDKDVIAINQDPLGKQGYQLRKGDNFEVWERPLSGDAWAVAIINRQEIGGPRSYTIPVASLGKGVACNPACFITQLLPVKRQLGFYNWTSRLKSHINPTGTVLLQLENTMQMSLKDLL
modifications: Synthetic Polypeptide sequence of Variant No. 442 of mature Human GLA
Relative Activity of GLA Variants After No Challenge (NC) [1]: + (0.5 to 1.5 relative activity over Rd4BB (SEQ ID NO: 15)) | Relative Activity of GLA Variants After Challenge at pH 3.7 [2]: + (0.5 to 1.5 relative activity over Rd4BB (SEQ ID NO: 15)) | Relative Activity of GLA Variants After Challenge at pH 9.65 [3]: − (<0.5 relative activity over Rd4BB (SEQ ID NO: 15))
